Patent US7771961B2, “Cytochrome c acetylation” (Elixir Pharmaceuticals, Inc, priority 2002, dated 2010)

Tests used:
[1] = system: chemically acetylated cytochrome c; experiment: titrated acetate release assay of deacetylation activity; assay type: biochemical; settings: in vitro, in the presence and absence of NAD
Method: (§1) The activity of these proteins was determined in vitro using either a ^14C-nicotinamide release assay or a titrated acetate release assay.
(§2) Recombinant GST-SIRT2 deacetylation activity was tested on chemically acetylated cytochrome c in the presence and absence of NAD. Deacetylation activity was determined in vitro using a titrated acetate release assay.
as §2, with “GST-SIRT3” for “GST-SIRT2”, “NAD. The recombinant SIRT3 was a fragment of human SIRT3 lacking the first 100 amino acids of the N-terminus of full length human SIRT3.” for “NAD.”

[2] = system: chemically acetylated cytochrome c; experiment: 14C-nicotinamide release assay of deacetylation activity; assay type: biochemical; settings: in vitro, enzyme from pull down of 293T cell extracts, GFP as control
Method: as §1
Cell derived GST-SIRT3 deacetylation activity was tested on chemically acetylated cytochrome c. The SIRT3 was derived from “pull down” 293T extracts.
Deacetylation activity was determined in vitro using a ^14C-nicotinamide release assay. Deacetylation was determined for GFP (control) with chemically acetylated cytochrome c, SIRT3-GFP with chemically acetylated cytochrome c, and SIRT3-GFP with histone 4.

B1: recombinant GST-SIRT2: recombinant GST fusion of human SIRT2, NAD-dependent deacetylase (protein)
chain: MAEPDPSHPLETQAGKVQEAQDSDSDSEGGAAGGEADMDFLRNLFSQTLSLGSQKERLLDELTLEGVARYMQSERCRRVICLVGAGISTSAGIPDFRSPSTGLYDNLEKYHLPYPEAIFEISYFKKHPEPFFALAKELYPGQFKPTICHYFMRLLKDKGLLLRCYTQNIDTLERIAGLEQEDLVEAHGTFYTSHCVSASCRHEYPLSWMKEKIFSEVTPKCEDCQSLVKPDIVFFGESLPARFFSCMQSDFLKVDLLLVMGTSLQVQPFASLISKAPLSTPRLLINKEKAGQSDPFLGMIMGLGGGMDFDSKKAYRDVAWLGECDQGCLALAELLGWKKELEDLVRREHASIDAQSGAGVPNPSTSASPKKSPPPAKDEARTTEREKPQ
modifications: left off: a dimerising Fc or GST
notes: recombinant GST fusion of human SIRT2, NAD-dependent deacetylase
deacetylation activity on chemically acetylated cytochrome c [1]: deacetylates cytochrome c in a NAD dependent manner

B2: recombinant GST-SIRT3: recombinant GST fusion of a fragment of human SIRT3 lacking the first 100 amino acids of the N-terminus (protein)
chain: SISFSVGASSVVGSGGSSDKGKLSLQDVAELIRARACQRVVVMVGAGISTPSGIPDFRSPGSGLYSNLQQYDLPYPEAIFELPFFFHNPKPFFTLAKELYPGNYKPNVTHYFLRLLHDKGLLLRLYTQNIDGLERVSGIPASKLVEAHGTFASATCTVCQRPFPGEDIRADVMADRVPRCPVCTGVVKPDIVFFGEPLPQRFLLHVVDFPMADLLLILGTSLEVEPFASLTEAVRSSVPRLLINRDLVGPLAWHPRSRDVAQLGDVVHGVESLVELLGWTEEMRDLVQRETGKLDGPDK
modifications: left off: a dimerising Fc or GST
notes: recombinant GST fusion of a fragment of human SIRT3 lacking the first 100 amino acids of the N-terminus
deacetylation activity on chemically acetylated cytochrome c [1]: deacetylates cytochrome c in a NAD dependent manner

B3: cell derived SIRT3: SIRT3 enzyme derived from pull down of 293T cell extracts (protein)
chain: MAFWGWRAAAALRLWGRVVERVEAGGGVGPFQACGCRLVLGGRDDVSAGLRGSHGARGEPLDPARPLQRPPRPEVPRAFRRQPRAAAPSFFFSSIKGGRRSISFSVGASSVVGSGGSSDKGKLSLQDVAELIRARACQRVVVMVGAGISTPSGIPDFRSPGSGLYSNLQQYDLPYPEAIFELPFFFHNPKPFFTLAKELYPGNYKPNVTHYFLRLLHDKGLLLRLYTQNIDGLERVSGIPASKLVEAHGTFASATCTVCQRPFPGEDIRADVMADRVPRCPVCTGVVKPDIVFFGEPLPQRFLLHVVDFPMADLLLILGTSLEVEPFASLTEAVRSSVPRLLINRDLVGPLAWHPRSRDVAQLGDVVHGVESLVELLGWTEEMRDLVQRETGKLDGPDK
modifications: left off: large carriers
notes: SIRT3 enzyme derived from pull down of 293T cell extracts
deacetylation activity on chemically acetylated cytochrome c [2]: deacetylates cytochrome c
